Data on 38 molecules can be found in paper PMC314469, “Protein Interaction Networks by Proteome Peptide Scanning” (PLoS Biology, 2004).

To fix the notation:
T1: amphyphisin SH3 (AMPH_HUMAN), P49418
T1 chain: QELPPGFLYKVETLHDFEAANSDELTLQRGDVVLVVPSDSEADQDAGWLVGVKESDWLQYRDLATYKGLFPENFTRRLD

One assay addresses endophilin SH3 (SH3G2_HUMAN), Q99962. The experiment in a line: SPOT array.
In turn, VLAELPRPRRPPLQ [Q9NSY0 101-114] gave a normalised SPOT signal, Boehringer light units (BLU); mean over the file's lines of this peptide of 244.
The molecule VLALPGKPPFLTQL [P05771 392-406] returned a normalised SPOT signal, Boehringer light units (BLU); mean over the file's lines of this peptide of 474.
With VPMPIARPARQTSR [Q9Y6R4 202-215], the normalised SPOT signal, Boehringer light units (BLU); mean over the file's lines of this peptide turned out to be 1680.
VNVVFRRPLRPADP [Q96FY0 68-81] returned a normalised SPOT signal, Boehringer light units (BLU); mean over the file's lines of this peptide of 266.
Regarding VPLPPARPPTRDNP [Q13191 775-789], the normalised SPOT signal, Boehringer light units (BLU); mean over the file's lines of this peptide came out at 592.
On the same count and under the same terms, under VPKPPPKPPSPPAP [P17405 180-194] stands 352.
VPGDPRRPYPTDLE [Q9NPJ6 168-181] registered a normalised SPOT signal, Boehringer light units (BLU); mean over the file's lines of this peptide of 39.7.
SLGLPSRPPSQLSG [Q8TBS2 64-78] yielded a normalised SPOT signal, Boehringer light units (BLU); mean over the file's lines of this peptide of 101.
Take VQSIINRPRKSPLP [O75970 1239-1252]: the normalised SPOT signal, Boehringer light units (BLU); mean over the file's lines of this peptide worked out at 84.7.
In turn, SKKGFRRPSEKNQH [P17010 781-794] showed a normalised SPOT signal, Boehringer light units (BLU); mean over the file's lines of this peptide of 32.
On the same count and under the same terms, under VNEGPPKPPTELEP [AAH32298 448-462] stands 3.4; under VNRGPKRPKVLQRG [Q9UDR8 470-483], 142; under VLDFPRRPPWSYEM [Q96CT5 125-139], 397.
Molecule VPQKPERPPLPPKP [Q96C88 96-110] gave a normalised SPOT signal, Boehringer light units (BLU); mean over the file's lines of this peptide of 13800.
VMQSLRRPSSSGSS [O60269 443-456] returned a normalised SPOT signal, Boehringer light units (BLU); mean over the file's lines of this peptide of 1190.
VPPPPARPPPRSAR [Q8WY41 65-79] showed a normalised SPOT signal, Boehringer light units (BLU); mean over the file's lines of this peptide of 11800.
VLPKFPRPVRTQEQ [Q92543 889-902] showed a normalised SPOT signal, Boehringer light units (BLU); mean over the file's lines of this peptide of 303.
As to VNRPLVRPQKRLSS [Q9BWX5 222-235], the normalised SPOT signal, Boehringer light units (BLU); mean over the file's lines of this peptide came to 6270.
Consider VLGVLRRPLEAPPE [Q03169 136-149], for which the normalised SPOT signal, Boehringer light units (BLU); mean over the file's lines of this peptide came out at 5.5.
On the same count and under the same terms, with VLLKLRRPVVGSSE [Q14596 255-268] the figure was 233; with VPRDLRRPASLIGQ [O60503 967-980], 19.5; with VPQKPERPPLPPEP [Q9H7F7 96-110], 4660.
For VQPQLRRPFELLIA [Q96QT6 202-215], the normalised SPOT signal, Boehringer light units (BLU); mean over the file's lines of this peptide was determined as 41.
In turn, VNIVPKKPPLLDRP [Q96NB9 30-44] gave a normalised SPOT signal, Boehringer light units (BLU); mean over the file's lines of this peptide of 114.
VRLLIRRPESFGPA [Q92736 2321-2334] showed a normalised SPOT signal, Boehringer light units (BLU); mean over the file's lines of this peptide of 539.
For SKAYPKRPLLGLVL [Q9GZR7 380-393], the normalised SPOT signal, Boehringer light units (BLU); mean over the file's lines of this peptide came to 385.
In turn, VPPGLRRPGPGTLY [P56945 374-387] showed a normalised SPOT signal, Boehringer light units (BLU); mean over the file's lines of this peptide of 43.6.
VMASLRRPKRIIIR [P78527 3728-3741] came in with a normalised SPOT signal, Boehringer light units (BLU); mean over the file's lines of this peptide of 177.
Same read-out and setting: with VNLKLRRPSFRDDI [O00467 301-314] the figure was 60.4; with VLAEIPRPLKRRGS [Q9Y290 36-49], 205; with VLLPPPRPTRKRSL [Q9P2L7 767-780], 7360.
Turning to VLPPPPRPPQRRSR [BAC05199 62-76], the normalised SPOT signal, Boehringer light units (BLU); mean over the file's lines of this peptide was 21900.
Consider VPPRPPRPPETART [P52849 69-83], for which the normalised SPOT signal, Boehringer light units (BLU); mean over the file's lines of this peptide came out at 5710.
Turning to VMARLSRPERPDLV [Q9HCS7 3-16], the normalised SPOT signal, Boehringer light units (BLU); mean over the file's lines of this peptide was found to be 1160.
Turning to VLQHLRRPVALQLD [Q9HC29 785-798], the normalised SPOT signal, Boehringer light units (BLU); mean over the file's lines of this peptide worked out at 58.9.
With VKRRPGRPRKSPLQ [Q9NR48 1846-1859], the normalised SPOT signal, Boehringer light units (BLU); mean over the file's lines of this peptide amounted to 107.
On to VLTALRRPARSSWH [Q8WW71 300-313], for which the normalised SPOT signal, Boehringer light units (BLU); mean over the file's lines of this peptide was determined as 395.
In turn, VPSLPIRPSRAPSR [O43426 1061-1074] yielded a normalised SPOT signal, Boehringer light units (BLU); mean over the file's lines of this peptide of 24800.

The next assay has as its target T1, amphyphisin SH3 (AMPH_HUMAN), P49418. The experiment in a line: SPOT array.
The molecule VLAELPRPRRPPLQ [Q9NSY0 101-114] returned a normalised SPOT signal, Boehringer light units (BLU); mean over the file's lines of this peptide of 596.
Same read-out and setting: under VLALPGKPPFLTQL [P05771 392-406] stands 57.3; under VPMPIARPARQTSR [Q9Y6R4 202-215], 9590; under VNVVFRRPLRPADP [Q96FY0 68-81], 768.
For the molecule VPLPPARPPTRDNP [Q13191 775-789], the normalised SPOT signal, Boehringer light units (BLU); mean over the file's lines of this peptide came out at 1730.
The molecule VPKPPPKPPSPPAP [P17405 180-194] registered a normalised SPOT signal, Boehringer light units (BLU); mean over the file's lines of this peptide of 71.9.
VPGDPRRPYPTDLE [Q9NPJ6 168-181]: the normalised SPOT signal, Boehringer light units (BLU); mean over the file's lines of this peptide was 11.9.
Molecule SLGLPSRPPSQLSG [Q8TBS2 64-78] showed a normalised SPOT signal, Boehringer light units (BLU); mean over the file's lines of this peptide of 42.4.
On the same count and under the same terms, with VQSIINRPRKSPLP [O75970 1239-1252] the figure was 109.
As for SKKGFRRPSEKNQH [P17010 781-794], the normalised SPOT signal, Boehringer light units (BLU); mean over the file's lines of this peptide is 33.1.
VNEGPPKPPTELEP [AAH32298 448-462] gave a normalised SPOT signal, Boehringer light units (BLU); mean over the file's lines of this peptide of 19.8.
The same measure, in the same setting: with VNRGPKRPKVLQRG [Q9UDR8 470-483] the figure was 9.
In turn, VLDFPRRPPWSYEM [Q96CT5 125-139] registered a normalised SPOT signal, Boehringer light units (BLU); mean over the file's lines of this peptide of 53.9.
Same read-out and setting: with VPQKPERPPLPPKP [Q96C88 96-110] the figure was 2630; with VMQSLRRPSSSGSS [O60269 443-456], 45.5; with VPPPPARPPPRSAR [Q8WY41 65-79], 14700.
As for VLPKFPRPVRTQEQ [Q92543 889-902], the normalised SPOT signal, Boehringer light units (BLU); mean over the file's lines of this peptide turned out to be 475.
On to VNRPLVRPQKRLSS [Q9BWX5 222-235], for which the normalised SPOT signal, Boehringer light units (BLU); mean over the file's lines of this peptide is 253.
Same read-out and setting: under VLGVLRRPLEAPPE [Q03169 136-149] stands 1.1.
VLLKLRRPVVGSSE [Q14596 255-268] yielded a normalised SPOT signal, Boehringer light units (BLU); mean over the file's lines of this peptide of 32.8.
Same read-out and setting: with VPRDLRRPASLIGQ [O60503 967-980] the figure was 25.8; with VPQKPERPPLPPEP [Q9H7F7 96-110], 216; with VQPQLRRPFELLIA [Q96QT6 202-215], 33.9.
The same measure, in the same setting: with VNIVPKKPPLLDRP [Q96NB9 30-44] the figure was 34.8; with VRLLIRRPESFGPA [Q92736 2321-2334], 15.5.
SKAYPKRPLLGLVL [Q9GZR7 380-393] displayed a normalised SPOT signal, Boehringer light units (BLU); mean over the file's lines of this peptide of 12.5.
Still for that read-out and setting: under VPPGLRRPGPGTLY [P56945 374-387] stands 41.5; under VMASLRRPKRIIIR [P78527 3728-3741], 743; under VNLKLRRPSFRDDI [O00467 301-314], 60.6.
In turn, VLAEIPRPLKRRGS [Q9Y290 36-49] showed a normalised SPOT signal, Boehringer light units (BLU); mean over the file's lines of this peptide of 138.
On the same count and under the same terms, with VLLPPPRPTRKRSL [Q9P2L7 767-780] the figure was 8360; with VLPPPPRPPQRRSR [BAC05199 62-76], 23100.
Turning to VPPRPPRPPETART [P52849 69-83], the normalised SPOT signal, Boehringer light units (BLU); mean over the file's lines of this peptide was 5100.
In turn, VMARLSRPERPDLV [Q9HCS7 3-16] yielded a normalised SPOT signal, Boehringer light units (BLU); mean over the file's lines of this peptide of 1410.
VLQHLRRPVALQLD [Q9HC29 785-798]: the normalised SPOT signal, Boehringer light units (BLU); mean over the file's lines of this peptide was 43.5.
As for VKRRPGRPRKSPLQ [Q9NR48 1846-1859], the normalised SPOT signal, Boehringer light units (BLU); mean over the file's lines of this peptide amounted to 167.
VLTALRRPARSSWH [Q8WW71 300-313] came in with a normalised SPOT signal, Boehringer light units (BLU); mean over the file's lines of this peptide of 1860.
Molecule VPSLPIRPSRAPSR [O43426 1061-1074] returned a normalised SPOT signal, Boehringer light units (BLU); mean over the file's lines of this peptide of 21500.
